Tested on: S. aureus
Assay: Lysocin E antimicrobial activity-enhancing activity (1 unit decreases the MIC of lysocin E to 1 µg ml−1)
Type: cell-based, Staphylococcus aureus
Details: ApoA species
Procedure: Calf serum (10 ml) was added to 15 ml EtOH (60% v/v) and the mixture was centrifuged for 15 min. The collected supernatant was evaporated and suspended in 8 ml Milli-Q water (fraction [fr.] II). Fr. II with formic acid (0.1%) was applied to 10 ml of ODS resin (Waters Corporation, Milford, MA, USA). After washing with 25% EtOH and then 50% EtOH, the resin was eluted with 75% EtOH containing 0.1% formic acid. The eluted sample was evaporated and dissolved in 0.8 ml buffer A (10 mM phosphate buffer [pH 7.1], 6 M urea; Fr. III). Fr. III was applied to the Superose 12 10/300 GL gel filtration column (GE Healthcare) and eluted with the AKTApurifier system (GE Healthcare). The elution was performed in buffer A at a flow rate of 0.5 ml min^−1 and 60 fractions (0.5 ml per fr.) were collected in 2-ml tubes. All fractions, except for Fr. I, were dialysed in 10 mM phosphate buffer (pH 7.1) before assessment of their activities. Protein concentrations were measured using Coomassie Plus^TM protein assay reagent (Thermo Fisher) with bovine serum albumin as the standard. Amino acid sequence analysis was performed by in-gel digestion and mass spectrometric analysis. One unit was defined as the activity that decreases the MIC of lysocin E to 1 µg ml^−1.

B1: rmApoA-I: recombinant mouse ApoA-I (protein, UniProt Q00623 25-264, looked up)
Apolipoprotein A-I: DEPQSQWDKVKDFANVYVDAVKDSGRDYVSQFESSSLGQQLNLNLLENWDTLGSTVSQLQERLGPLTRDFWDNLEKETDWVRQEMNKDLEEVKQKVQPYLDEFQKKWKEDVELYRQKVAPLGAELQESARQKLQELQGRLSPVAEEFRDRMRTHVDSLRTQLAPHSEQMRESLAQRLAELKSNPTLNEYHTRAKTHLKTLGEKARPALEDLRHSLMPMLETLKTQVQSVIDKASETLTAQ
Specific activity for lysocin E antimicrobial enhancing activity: 6400 unit mg-1 protein
